{
  "source": "paper PMC2824112",
  "about": "“A comparative analysis of the fluorescence properties of the wild-type and active site mutants of the hepatitis C virus autoprotease NS2-3” (Biochimica et Biophysica Acta, 2010)",
  "proteins": {"B1": {"name": "JFH-1 NS2-3 wild-type precursor (HCV genotype 2a NS2-3 autoprotease, residues 907-1210) (domain or fragment)", "chain": "RAALTHVPYFVRAHALIRVCALVKQLAGGRYVQVALLALGRWTGTYIYDHLTPMSDWAASGLRDLAVAVEPIIFSPMEKKVIVWGAETAACGDILHGLPVSARLGQEILLGPADGYTSKGWKLLAPITAYAQQTRGLLGAIVVSMTGRDRTEQAGEVQILSTVSQSFLGTTISGVLWTVYHGAGNKTLAGLRGPVTQMYSSAEGDLVGWPSPPGTKSLEPCKCGAVDLYLVTRNADVIPARRRGDKRGALLSPRPISTLKGSSGGPVLCPRGHVVGLFRAAVCSRGVAKSIDFIPVETLDVVTR", "notes": "The wild type auto-cleaves at 25 °C with about 30% efficiency overnight; also called WT NS2-3; NS2-3 precursor; not shown: FLAG, C-terminal, kept"}},
  "biological_target": "the molecule itself",
  "assay": "cross-linking; glutaraldehyde (final 0.001-0.002% v/v in refolding buffer) on refolded NS2-3 precursor (0.2 uM), 50 ul, 25 °C, 5 min; SDS-PAGE and western blot with anti-FLAG; monomer to dimer",
  "data": [
    {"protein": "B1", "values": [
      {"measurement": "stoichiometry N", "result": 2}
    ]}
  ]
}
